The experiment deals with D76N-β2-microglobulin (UniProt P61769).
UniProt P61769, sequence (P61769 other isoform, or with tags, fused parts or gaps D76N | D76N): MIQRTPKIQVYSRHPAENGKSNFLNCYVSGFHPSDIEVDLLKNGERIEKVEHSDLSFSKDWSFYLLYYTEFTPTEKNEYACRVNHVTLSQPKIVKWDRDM

The substance “crosslinked dimers (XL-Ds) of D76N-β2m/S57C (from UniProt P61769 21-119) (complex)” registered a ThT fluorescence kinetics of seeded fibril growth of 20 μM D76N-β2m with 3% or 10% (w/w) fibril seeds and 10% (w/w) XL-Ds: fold increase in T (half) of 1.6 fold.

These data come from article PMC9712992.
